Consider 91 sequences from the supplement of paper PMC9112550, “Optimization of the antimicrobial peptide Bac7 by deep mutational scanning” (BMC Biology, 2022).

The data set deals with Escherichia coli TOP10. Nature of the data set: shrunken log2 fold change of peptide-encoding DNA abundance (4.5 h post-induction vs induction); higher = less antimicrobial activity (less host growth inhibition). To be noted: time post-induction: 4.5 h; library: site-saturation at positions 5, 18, 19, 20.
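Further: peptides expressed intracellularly from a pBAD plasmid library in pooled LB shake-flask culture, induced with 0.3% L-arabinose, DNA abundance read by NGS, three biological replicates, DESeq2 with apeglm shrinkage.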

In the case of RRIRARPPRLPRPRPRPETAPRP, the “shrunken log2 fold change” value came to 0.236.

Regarding RRIRPRPPRLPRPRPRPCKMPRP, the “shrunken log2 fold change” value is -0.223.

Take RRIRHRPPRLPRPRPRPGGPPRP: the “shrunken log2 fold change” value was -0.355.

RRIRARPPRLPRPRPRPYRCPRP: the “shrunken log2 fold change” value is -0.174.

Regarding RRIRQRPPRLPRPRPRPEAGPRP, the “shrunken log2 fold change” value is 0.109.

Consider RRIRNRPPRLPRPRPRPFCQPRP, for which the “shrunken log2 fold change” value is -0.677.

On to RRIRLRPPRLPRPRPRPEGNPRP, for which the “shrunken log2 fold change” value was -0.149.

In the case of RRIRWRPPRLPRPRPRPFGFPRP, the “shrunken log2 fold change” value came out at 0.321.

RRIRTRPPRLPRPRPRPATFPRP: the “shrunken log2 fold change” value was -0.129.

Take RRIRMRPPRLPRPRPRPSNIPRP: the “shrunken log2 fold change” value was -0.227.

Consider RRIRRRPPRLPRPRPRPDCMPRP, for which the “shrunken log2 fold change” value is 0.32.

Take RRIRYRPPRLPRPRPRPSSLPRP: the “shrunken log2 fold change” value was -0.0385.

In the case of RRIRFRPPRLPRPRPRPFSWPRP, the “shrunken log2 fold change” value is -0.00262.

Regarding RRIRFRPPRLPRPRPRPRCDPRP, the “shrunken log2 fold change” value came to 0.0576.

Regarding RRIRKRPPRLPRPRPRPDFFPRP, the “shrunken log2 fold change” value is 0.0109.

With RRIRCRPPRLPRPRPRPVNFPRP, the “shrunken log2 fold change” value was -0.484.

On to RRIRLRPPRLPRPRPRPPETPRP, for which the “shrunken log2 fold change” value worked out at 0.0221.

For RRIRNRPPRLPRPRPRPPDGPRP, the “shrunken log2 fold change” value was found to be 0.313.

Take RRIRLRPPRLPRPRPRPHHSPRP: the “shrunken log2 fold change” value is -0.506.

With RRIRRRPPRLPRPRPRPGSDPRP, the “shrunken log2 fold change” value was 0.421.

Take RRIRVRPPRLPRPRPRPSVQPRP: the “shrunken log2 fold change” value was -0.0929.

Take RRIRERPPRLPRPRPRPQVAPRP: the “shrunken log2 fold change” value was -0.366.

RRIRYRPPRLPRPRPRPHMDPRP: the “shrunken log2 fold change” value was -1.85.

As to RRIRERPPRLPRPRPRPYSHPRP, the “shrunken log2 fold change” value is 0.0583.

As to RRIRIRPPRLPRPRPRPHCPPRP, the “shrunken log2 fold change” value is -0.102.

RRIRWRPPRLPRPRPRPAYVPRP: the “shrunken log2 fold change” value turned out to be 0.0521.

With RRIRSRPPRLPRPRPRPVNKPRP, the “shrunken log2 fold change” value was -0.404.

For RRIRLRPPRLPRPRPRPHVMPRP, the “shrunken log2 fold change” value was -0.266.

On to RRIRARPPRLPRPRPRPVGQPRP, for which the “shrunken log2 fold change” value was found to be 0.225.

Consider RRIRGRPPRLPRPRPRPCKTPRP, for which the “shrunken log2 fold change” value was determined as 0.0121.

As for RRIRLRPPRLPRPRPRPAREPRP, the “shrunken log2 fold change” value turned out to be 0.678.

For the sequence RRIRTRPPRLPRPRPRPWTPPRP, the “shrunken log2 fold change” value is -0.00155.

RRIRGRPPRLPRPRPRPKRFPRP: the “shrunken log2 fold change” value is -0.0242.

Regarding RRIRARPPRLPRPRPRPFFPPRP, the “shrunken log2 fold change” value is 0.527.

RRIRHRPPRLPRPRPRPWMHPRP: the “shrunken log2 fold change” value came to 0.0155.

In the case of RRIRCRPPRLPRPRPRPLCGPRP, the “shrunken log2 fold change” value is -0.0842.

Regarding RRIRSRPPRLPRPRPRPFQVPRP, the “shrunken log2 fold change” value is -0.0848.

Turning to RRIRMRPPRLPRPRPRPLFVPRP, the “shrunken log2 fold change” value was found to be 0.286.

Consider RRIRDRPPRLPRPRPRPQSWPRP, for which the “shrunken log2 fold change” value is -0.0644.

Regarding RRIRSRPPRLPRPRPRPYNIPRP, the “shrunken log2 fold change” value was -0.579.

In the case of RRIRSRPPRLPRPRPRPGCNPRP, the “shrunken log2 fold change” value came out at 0.0419.

As for RRIRRRPPRLPRPRPRPYQYPRP, the “shrunken log2 fold change” value is -0.0327.

For RRIRWRPPRLPRPRPRPATPPRP, the “shrunken log2 fold change” value came to 0.755.

Turning to RRIRPRPPRLPRPRPRPWDLPRP, the “shrunken log2 fold change” value was -0.0362.

Take RRIRVRPPRLPRPRPRPFMHPRP: the “shrunken log2 fold change” value was -0.156.

For RRIRNRPPRLPRPRPRPQKFPRP, the “shrunken log2 fold change” value is -0.0476.

As for RRIRTRPPRLPRPRPRPVPCPRP, the “shrunken log2 fold change” value is -0.0501.

In the case of RRIRPRPPRLPRPRPRPPQFPRP, the “shrunken log2 fold change” value worked out at 0.297.

On to RRIRLRPPRLPRPRPRPIDYPRP, for which the “shrunken log2 fold change” value was -0.0867.

Turning to RRIRSRPPRLPRPRPRPFNAPRP, the “shrunken log2 fold change” value was -0.459.

Take RRIRTRPPRLPRPRPRPMRLPRP: the “shrunken log2 fold change” value is -0.0194.

For the sequence RRIRCRPPRLPRPRPRPKYDPRP, the “shrunken log2 fold change” value was -0.605.

Regarding RRIRHRPPRLPRPRPRPNEKPRP, the “shrunken log2 fold change” value is -0.0239.

As to RRIRERPPRLPRPRPRPKDQPRP, the “shrunken log2 fold change” value is 0.188.

As for RRIRIRPPRLPRPRPRPESPPRP, the “shrunken log2 fold change” value is -0.135.

Regarding RRIRVRPPRLPRPRPRPDMYPRP, the “shrunken log2 fold change” value is -0.0946.

Turning to RRIRDRPPRLPRPRPRPWLYPRP, the “shrunken log2 fold change” value was -0.68.

In the case of RRIRHRPPRLPRPRPRPIHVPRP, the “shrunken log2 fold change” value came to 0.0364.

Take RRIRIRPPRLPRPRPRPRAWPRP: the “shrunken log2 fold change” value amounted to 0.187.

RRIRSRPPRLPRPRPRPEHDPRP: the “shrunken log2 fold change” value was -0.128.

Consider RRIRKRPPRLPRPRPRPIDSPRP, for which the “shrunken log2 fold change” value was determined as 0.229.

RRIRARPPRLPRPRPRPCWLPRP: the “shrunken log2 fold change” value stood at 0.294.

Consider RRIRDRPPRLPRPRPRPTIIPRP, for which the “shrunken log2 fold change” value was -0.127.

For RRIRERPPRLPRPRPRPGMPPRP, the “shrunken log2 fold change” value was -0.0315.

Regarding RRIRPRPPRLPRPRPRPIYFPRP, the “shrunken log2 fold change” value is -0.205.

As for RRIRGRPPRLPRPRPRPDIEPRP, the “shrunken log2 fold change” value came to 0.735.

In the case of RRIRCRPPRLPRPRPRPMRSPRP, the “shrunken log2 fold change” value is 0.211.

In the case of RRIRHRPPRLPRPRPRPRNHPRP, the “shrunken log2 fold change” value was -0.481.

Turning to RRIRRRPPRLPRPRPRPRKYPRP, the “shrunken log2 fold change” value is -0.33.

For the sequence RRIRKRPPRLPRPRPRPNPNPRP, the “shrunken log2 fold change” value is 0.179.

On to RRIRFRPPRLPRPRPRPHQMPRP, for which the “shrunken log2 fold change” value is -0.037.

With RRIRIRPPRLPRPRPRPFRCPRP, the “shrunken log2 fold change” value is -0.192.

With RRIRERPPRLPRPRPRPEIEPRP, the “shrunken log2 fold change” value was 0.0286.

RRIRQRPPRLPRPRPRPGAPPRP: the “shrunken log2 fold change” value came out at 0.307.

Turning to RRIRYRPPRLPRPRPRPQGAPRP, the “shrunken log2 fold change” value was -0.238.

With RRIRSRPPRLPRPRPRPPMWPRP, the “shrunken log2 fold change” value was found to be 0.54.

RRIRKRPPRLPRPRPRPIQVPRP: the “shrunken log2 fold change” value is -0.137.

Turning to RRIRLRPPRLPRPRPRPRYVPRP, the “shrunken log2 fold change” value was -0.265.

For RRIRFRPPRLPRPRPRPGHEPRP, the “shrunken log2 fold change” value is -0.196.

Regarding RRIRIRPPRLPRPRPRPQMHPRP, the “shrunken log2 fold change” value was -0.494.

Take RRIRNRPPRLPRPRPRPFFLPRP: the “shrunken log2 fold change” value is -0.255.

For RRIRMRPPRLPRPRPRPSSEPRP, the “shrunken log2 fold change” value is -0.103.

As for RRIRFRPPRLPRPRPRPGANPRP, the “shrunken log2 fold change” value was -0.0673.

For the sequence RRIRMRPPRLPRPRPRPQRFPRP, the “shrunken log2 fold change” value was -0.0093.

For RRIRHRPPRLPRPRPRPQFVPRP, the “shrunken log2 fold change” value is -0.163.

On to RRIRLRPPRLPRPRPRPFCDPRP, for which the “shrunken log2 fold change” value was -0.366.

On to RRIRYRPPRLPRPRPRPNCTPRP, for which the “shrunken log2 fold change” value is -0.126.

As to RRIRIRPPRLPRPRPRPSCNPRP, the “shrunken log2 fold change” value was -0.576.

RRIRCRPPRLPRPRPRPQEGPRP: the “shrunken log2 fold change” value is -0.0193.

Consider RRIRLRPPRLPRPRPRPDLAPRP, for which the “shrunken log2 fold change” value was -0.062.

For the sequence RRIRRRPPRLPRPRPRPVHYPRP, the “shrunken log2 fold change” value turned out to be 0.0593.
